Columns and labels:
[1] = target: PARP1 - Nuc165 complex (Alexa488-labelled PARP1 bound to a recombinant nucleosome with DNA linker ends of 7 and 11 base pairs) (UniProt P09874); test: FRET or BRET; as a1 but with olaparib (1 uM): Alexa647-HPF1 titrated into Alexa488-PARP1 premixed with Nuc165 (20 nM) and olaparib; binding buffer
[2] = target: PARP1 - Nuc165 complex (Alexa488-labelled PARP1 bound to a recombinant nucleosome with DNA linker ends of 7 and 11 base pairs) (UniProt P09874); test: FRET or BRET; Alexa647-HPF1 (0.6-10,000 nM, […] dilutions) titrated into Alexa488-PARP1 premixed with Nuc165 (20 nM) and DMSO (control, no olaparib); binding buffer 50 mM Tris-HCl pH 8.0, 50 mM NaCl, 1 mM MgCl2, 0.1 mM EDTA, 0.01% IGEPAL; 384-well plate

PARP1 - Nuc165 complex (Alexa488-labelled PARP1 bound to a recombinant nucleosome with DNA linker ends of 7 and 11 base pairs), sequence (P09874 whole entry, looked up, one chain of several): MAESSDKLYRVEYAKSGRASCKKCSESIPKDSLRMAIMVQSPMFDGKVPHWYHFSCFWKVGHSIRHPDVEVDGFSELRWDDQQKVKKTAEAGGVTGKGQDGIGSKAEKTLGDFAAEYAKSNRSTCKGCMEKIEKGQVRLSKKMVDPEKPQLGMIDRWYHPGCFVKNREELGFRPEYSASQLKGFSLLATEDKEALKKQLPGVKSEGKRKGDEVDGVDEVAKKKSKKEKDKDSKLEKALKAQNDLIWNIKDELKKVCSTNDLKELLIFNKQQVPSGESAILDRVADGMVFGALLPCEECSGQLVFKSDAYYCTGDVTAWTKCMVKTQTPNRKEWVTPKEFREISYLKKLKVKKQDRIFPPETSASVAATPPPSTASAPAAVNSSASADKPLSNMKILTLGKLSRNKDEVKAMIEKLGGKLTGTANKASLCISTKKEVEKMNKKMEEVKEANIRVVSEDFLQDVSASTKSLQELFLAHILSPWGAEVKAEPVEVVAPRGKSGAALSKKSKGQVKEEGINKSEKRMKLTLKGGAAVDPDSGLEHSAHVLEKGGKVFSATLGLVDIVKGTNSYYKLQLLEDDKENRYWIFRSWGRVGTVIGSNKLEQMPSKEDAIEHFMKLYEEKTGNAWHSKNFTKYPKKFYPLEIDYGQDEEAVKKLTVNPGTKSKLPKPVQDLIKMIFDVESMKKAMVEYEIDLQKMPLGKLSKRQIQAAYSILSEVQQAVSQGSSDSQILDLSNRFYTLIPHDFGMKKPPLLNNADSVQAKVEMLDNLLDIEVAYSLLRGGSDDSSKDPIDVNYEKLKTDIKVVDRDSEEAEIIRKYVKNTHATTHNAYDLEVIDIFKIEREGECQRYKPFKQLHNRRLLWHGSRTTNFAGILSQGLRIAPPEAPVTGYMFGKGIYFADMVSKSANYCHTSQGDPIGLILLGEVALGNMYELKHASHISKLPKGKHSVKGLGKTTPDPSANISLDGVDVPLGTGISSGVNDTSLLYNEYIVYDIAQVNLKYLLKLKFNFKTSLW

Kd [1]: 229 nM | Kd [2]: 790 nM
B1: Histone PARylation factor 1 (HPF1), labelled with Alexa647 (natural protein)
chain: LRKEVENHYKLSLPEDFYHFWKFCEELDPEKPSDSLSASLGLQLVGPYDILAGKHKTKKKSTGLNFNLHWRFYYDPPEFQTIIIGDNKTQYHMGYFRDSPDEFPVYVGINEAKKNCIIVPNGDNVFAAVKLFLTKKLREITDKKKINLLKNIDEKLTEAARELGYSLEQRTVKMKQRDKKVVTKTFHGAGLVVPVDKNDVGYRELPETDADLKRICKTIVEAASDEERLKAFAPIQEMMTFVQFANDECDYGMGLELGMDLFCYGSHYFHKVAGQLLPLAYNLLKRNLFAEIIEEHLANRSQENIDQLAA
modifications: Alexa647 C2 maleimide label (extent of labeling typically 50-100%)
